Test results from publication PMC12207588.

Tested on: P02768
Test: SEC; BioSep SEC-s2000 column, PBS pH 7.4, 1 mL/min; share of monomer, dimer and trimer from the UV trace at 280 nm

Substance: DFO*malHSA (HSA1 conjugated with DFO*maleimide at Cys34)
- percent dimer and trimer together (SEC UV trace at 280 nm): the other 5% of the UV trace corresponds to the albumin dimer and trimer

Substance: Human serum albumin, lyophilized powder from human serum, A1693 (HSA2)
- percent HSA dimer (SEC UV trace at 280 nm): 10.7% (6.7 min)

Substance: Human serum albumin, lyophilized powder from human serum, A3782 (HSA3)
- percent HSA dimer (SEC UV trace at 280 nm): 3.4% (7.3 min)

Substance: Human serum albumin, pharmaceutical solution Albunorm (HSA1)
- percent HSA dimer (SEC UV trace at 280 nm): 1.1% (7.1 min)
- percent HSA trimer (SEC UV trace at 280 nm): 2.9% (5.6 min)

Substance: Recombinant human serum albumin, lyophilized, A9731 (HSA4)
- percent HSA dimer (SEC UV trace at 280 nm): 10.2% (7.2 min)
